In this series the test system is MS2 coat protein. Nature of the series: apparent KD of MS2 coat protein; designed switch direction (-1 OFF switch, 1 ON switch): 1; higher = weaker reporter binding. In a few lines: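 Stalled E. coli RNA polymerase transcribed designed RNA switches on Illumina chips, which were then titrated with SNAP-549-labelled MS2 coat protein, doubling from 0.7 or 1.5 nM to 3 µM. Steps lasted from 0.8–1.5 h at the lowest concentration to 10–20 min at the highest. The apparent KD is each design's median over clusters of curve-fitted normalised fluorescence.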

[1] abbreviates: input ligand: microRNA oligo, concentration not stated.
Where [2] appears, read: Eterna round: R95, input ligand: FMN 200 uM.
Setting [3] is: Eterna round: R95, input ligand: microRNA oligo, concentration not stated.
Setting [4] is: Eterna round: R95, input ligand: none.

The source of these data is the supplement of paper PMC9170038.

With “GUAGCAUACCGAGGAUAUUCAACAUGAGGAUCACCCAUGUGUUUAUUAUAGGCCAAAAGGCCUUGGGAGAAGGCGGAAUGCUAC [Xeonanis - 20 Mod15] (Eterna round: R96, puzzle: Same State NG 2)”, the “apparent KD of MS2 coat protein” value by setting is: (input ligand: FMN 200 uM) 0.0094 µM; under setting [1], 0.0084 µM; (input ligand: none) 0.0157 µM.
In the case of “GUAGCAUACCGAGGAUAUUCAUAACCGAAAGGAACAUGAGGAUCACCCAUGUGGCGAAAGCCUUGGGAGAAGGCGGAAUGCUAC [Xeonanis - 20 Mod74] (Eterna round: R96, puzzle: Same State NG 2)”, the “apparent KD of MS2 coat protein” value runs as follows: (input ligand: FMN 200 uM) 0.0428 µM; under setting [1], 0.291 µM; (input ligand: none) 0.957 µM.
For “GUAGCAUACCGAGGAUAUUCAUACAUGAGGAUCACCCAUGUUAAUAGGCCACAUUAGUGGCCUUGGGAGAAGGCGGAAUGCUAC [Xeonanis - 20 Mod46] (Eterna round: R96, puzzle: Same State NG 2)” the same measures were 0.0141 µM, 0.0107 µM and 0.0166 µM.
For the sequence “GUAGCAUACCGAGGAUAUUCAUAUACAUGAGGAUCACCCAUGUUAAUAUAGGCCAAAAGGCCUUGGGAGAAGGCGGAAUGCUAC [Xeonanis - 20 Mod11] (Eterna round: R96, puzzle: Same State NG 2)”, the “apparent KD of MS2 coat protein” value (input ligand: FMN 200 uM) turned out to be 0.00901 µM, the “apparent KD of MS2 coat protein” value under setting [1] came to 0.00983 µM and the “apparent KD of MS2 coat protein” value (input ligand: none) is 0.0133 µM.
As to “GUAGCAUACCGAGGAUAUUCAUAUACAUGAGGAUCACCCAUGUUUAUAGGUCGAUUACGACCUUGGGAGAAGGCGGAAUGCUAC [Xeonanis - 20 Mod31] (Eterna round: R96, puzzle: Same State NG 2)”, the “apparent KD of MS2 coat protein” value by setting is: (input ligand: FMN 200 uM) 0.0108 µM; under setting [1], 0.00968 µM; (input ligand: none) 0.0139 µM.
For “GUAGCAUACCGAGGAUAUUCAUAUAUACAUGAGGAUCACCCAUGUUAAAAUAGGCGAAAGCCUUGGGAGAAGGCGGAAUGCUAC [Xeonanis - 20 Mod67] (Eterna round: R96, puzzle: Same State NG 2)” the same measures were 0.00945 µM, 0.0114 µM and 0.015 µM.
Consider “GUAGCAUACCGAGGAUAUUCAUAUUAACAUGAGGAUCACCCAUGUUUAGGCCGAUUACGGCCUUGGGAGAAGGCGGAAUGCUAC [Xeonanis - 20 Mod22] (Eterna round: R96, puzzle: Same State NG 2)”, for which the “apparent KD of MS2 coat protein” value reads like this: (input ligand: FMN 200 uM) 0.0109 µM; under setting [1], 0.0149 µM; (input ligand: none) 0.0251 µM.
For “GUAGCAUACCGAGGAUAUUCAUAUUACAUGAGGAUCACCCAUGUUAGGCCACAUUAGUGGCCUUGGGAGAAGGCGGAAUGCUAC [Xeonanis - 20 Mod40] (Eterna round: R96, puzzle: Same State NG 2)”, the “apparent KD of MS2 coat protein” value reads like this: (input ligand: FMN 200 uM) 0.0146 µM; under setting [1], 0.0697 µM; (input ligand: none) 0.104 µM.
As to “GUAGCAUACCGAGGAUAUUCAUUACAUGAGGAUCACCCAUGUUUUAUAGGCCGAUUACGGCCUUGGGAGAAGGCGGAAUGCUAC [Xeonanis - 20 Mod27] (Eterna round: R96, puzzle: Same State NG 2)”, under setting [1], the “apparent KD of MS2 coat protein” value was 0.0097 µM.
Regarding “GUAGCAUGCACCGAGGAUAUUCAUAUUAAAACAUGAGGAUCACCCAUGUAGGCCAAAAGGCCUUGGGAGAAGGCGGACAUGCUAC [Xeonanis - 21] (puzzle: Same State 2)”, the “apparent KD of MS2 coat protein” value is 0.0235 µM under setting [2], 0.178 µM under setting [3] and 0.422 µM under setting [4].
Regarding “GUAGCCGGCACUGAGGAUAUUCAUAUUUAAACAUGAGGAUCACCCAUGUAGGCCAGAAGGCCUUGGGAGAAGGCAGGUCGGCUCG [salish99_ss2_r3_081] (puzzle: Same State 2)”, the “apparent KD of MS2 coat protein” value came to 0.0207 µM under setting [2], 0.21 µM under setting [3] and 0.294 µM under setting [4].
In the case of “GUAUAACAUGAGGAUCACCCAUGUCAACAAAGUCGAGGAUAUGGGCAAUUAUAAUUAGAACCAGAAGGCGAAUAGU [Mat - Same State 1 - Mod of UCT - D43] (puzzle: Same State 1)”, the “apparent KD of MS2 coat protein” value runs as follows: under setting [2], 0.0308 µM; under setting [3], 0.287 µM; under setting [4], 0.251 µM.
Turning to “GUAUAACAUGAGGAUCACCCAUGUCAUCUAAGUCGAGGAUAUGGGCAAAUAAUAUAAGAACCAGAAGGCGAAUAUG [Mat - Same State 1 - Mod of UCT - D35] (puzzle: Same State 1)”, the “apparent KD of MS2 coat protein” value worked out at 0.0618 µM under setting [2], 0.122 µM under setting [3] and 0.359 µM under setting [4].
Turning to “GUAUCUUCAGGUUGCAAUGCUCGUCGGAUACAUGAGGAUCACCCAUGUUAUUAACCUGUGCUUGCGCGGGUAUGAUU [Photon Torp-01] (puzzle: Sensor for hsa-mir-208a)”, the “apparent KD of MS2 coat protein” value runs as follows: under setting [2], 0.0218 µM; under setting [3], 0.0325 µM; under setting [4], 0.0233 µM.
“GUCAACACAAUAGGAUAUUAGACCAUGGAGCCGUACAUGAGGAUCACCCAUGUCUUAGGUUGAUCUAAGAAGGAUUCGUGACGU [Eternabot solution 47] (Eterna round: R96, puzzle: Same State NG 2)”: the “apparent KD of MS2 coat protein” value is 0.0534 µM (input ligand: FMN 200 uM), 0.0591 µM under setting [1] and 0.086 µM (input ligand: none).
For “GUCAGGCAAGCUUUUUUCUCGUAGUGUAAACAUGAGGAUCACCCAUGUGCUCGCCCUGGAUCUUUGGAUCGCGGAAA [Xeatesis] (puzzle: Sensor for hsa-mir-208a)”, the “apparent KD of MS2 coat protein” value runs as follows: under setting [2], 0.0346 µM; under setting [3], 0.0198 µM; under setting [4], 0.0365 µM.
Take “GUCCAAAACACAGGAUAUCCCAGUCAUGAUCUGGGAGAAGGGUGGCCACAUGAGGAUCACCCAUGUGAAGUGCCAGAGGCACGA [Xexeraed] (Eterna round: R96, puzzle: Same State NG 1)”: the “apparent KD of MS2 coat protein” value was found to be 0.373 µM (input ligand: FMN 200 uM), 0.876 µM under setting [1] and 1.02 µM (input ligand: none).
On to “GUGCAACCGUGUGAGGAUAUCGGUGGUAAAACAUGAGGAUCACCCAUGUCCGAAGCUCGGAUCUCCGAGAAGGCGCACAGUUGCA [Same State 2 - Mod of Erisin v.2] (puzzle: Same State 2)”, for which the “apparent KD of MS2 coat protein” value runs as follows: under setting [2], 0.0278 µM; under setting [3], 0.29 µM; under setting [4], 0.47 µM.
Turning to “GUGCUCGUGUGAGGAUAUGCUUCCGUUUCGGCUGCAGAAGGUACUAUUAUACAUGAGGAUCACCCAUGUCCCUUUUCUCCGGUG [salish99_SSNG1_r04_914] (Eterna round: R96, puzzle: Same State NG 1)”, the “apparent KD of MS2 coat protein” value was determined as 0.0184 µM (input ligand: FMN 200 uM), 0.0135 µM under setting [1] and 0.0219 µM (input ligand: none).
Take “GUGGAGGGUUGAGGAUAUUGAAUACAUAUGUUUAACAUGAGGAUCACCCAUGUGGGUUGCGGUAUCGAGAAGGUAGGUUGCUGG [salish99_SSNG2_r04_039] (Eterna round: R96, puzzle: Same State NG 2)”: the “apparent KD of MS2 coat protein” value (input ligand: FMN 200 uM) was found to be 0.0967 µM, the “apparent KD of MS2 coat protein” value under setting [1] came to 0.0452 µM and the “apparent KD of MS2 coat protein” value (input ligand: none) amounted to 0.0849 µM.
On to “GUGGCACAUGAGGAUCACCCAUGUAGGUAGAACAUAGGAUAUCACCAACAAAAUACCUGGUGAGAAGGAUGAUGCC [Zaesleer] (puzzle: Same State 1)”, for which the “apparent KD of MS2 coat protein” value under setting [3] was 0.143 µM.
“GUGGCCCAGGCACAGGAUAUGUUUCUCGUAACAUGAGGAUCACCCAUGUGCCUAUGAGAUUUAAUGCAGAAGGGUGCACGCCACA [Mat - Same State 2 - Mod of UCT - D78] (puzzle: Same State 2)”: the “apparent KD of MS2 coat protein” value runs as follows: under setting [2], 0.0188 µM; under setting [3], 0.164 µM; under setting [4], 0.199 µM.
Take “GUGGUCAGACAUGAGGAUCACCCAUGUGGAAUAAAUAACGAACAGGAUAUUCAAUAUAGGAUAUAGAAGAAGGGUUGAUUGGUG (Eterna round: R96, puzzle: Same State NG 3)”: the “apparent KD of MS2 coat protein” value runs as follows: (input ligand: FMN 200 uM) 0.204 µM; under setting [1], 0.171 µM; (input ligand: none) 0.187 µM.
On to “GUGGUCAGACAUGAGGAUCACCCAUGUGGAAUAAAUAACGUACAGGAUAUGCAAUAUAGGAUAUAGUAGAAGGGUAGAUUGGUG (Eterna round: R96, puzzle: Same State NG 3)”, for which the “apparent KD of MS2 coat protein” value (input ligand: FMN 200 uM) was determined as 0.116 µM, the “apparent KD of MS2 coat protein” value under setting [1] worked out at 0.095 µM and the “apparent KD of MS2 coat protein” value (input ligand: none) was determined as 0.123 µM.
“GUGGUCAGACAUGAGGAUCACCCAUGUGGAAUAAAUAACGUCAAGGAUAUAUAAUAUAGGAUAUAAUAGAAGGUGAGAUUGGUG (Eterna round: R96, puzzle: Same State NG 3)”: the “apparent KD of MS2 coat protein” value is, setting by setting: (input ligand: FMN 200 uM) 0.108 µM; under setting [1], 0.107 µM; (input ligand: none) 0.119 µM.
“GUGGUCAGACAUGAGGAUCACCCAUGUGGAAUAAAUAAGGAACAGGAUAUGGAAUAUAGGAUAUACCAGAAGGGUUGGUUGGUG (Eterna round: R96, puzzle: Same State NG 3)”: under setting [1], the “apparent KD of MS2 coat protein” value stood at 0.0623 µM.
In the case of “GUGGUCAGACAUGAGGAUCACCCAUGUGGAAUAAAUAAGGAGAAGGAUAUGGAAUAUAGGAUAUACCAGAAGGUCUGGUUGGUG (Eterna round: R96, puzzle: Same State NG 3)”, the “apparent KD of MS2 coat protein” value under setting [1] amounted to 0.0558 µM.
For the sequence “GUGGUCAGACAUGAGGAUCACCCAUGUGGAAUAAAUAAGGAGAAGGAUAUGUAAUAUAGGAUAUAACAGAAGGUUUGGUUGGUG (Eterna round: R96, puzzle: Same State NG 3)”, the “apparent KD of MS2 coat protein” value is, setting by setting: (input ligand: FMN 200 uM) 0.105 µM; under setting [1], 0.0697 µM; (input ligand: none) 0.0965 µM.
